{"source": "paper doi:10.1101/2020.06.06.138305", "biological_target": "His-tagged encapsulin from Thermotoga maritima (Thermotoga maritima)", "assay": "co-purification"}
{"substance": "ESig-tagged mini-Singlet Oxygen Generator (miniSOG)", "values": [{"measurement": "stoichiometry N (mSOG molecules per nanocompartment)", "result": 7}]}
